Holding throughout (assay): split reporter (BiFC, NanoBiT); split-GFP (mGFP2 split between residues 157 and 158) in Hfx. volcanii transformants in vivo; eight combinations of fusions a pair, highest relative fluorescence (rf) given; cells in basal salts (3 M NaCl, 150 mM MgSO4, 50 mM KCl) at OD600 1; rf > 5 clear interaction, rf < 1 no interaction
The target in test [1] is GvpG fused to NGFP or CGFP (split-GFP) (Halobacterium salinarum PHH1).
The target in test [2] is GvpF fused to NGFP or CGFP (split-GFP) (Halobacterium salinarum PHH1).
Test [3] addresses GvpL fused to NGFP or CGFP (split-GFP) (Halobacterium salinarum PHH1).
For test [4], the target named is GvpI fused to NGFP or CGFP (split-GFP) (Halobacterium salinarum PHH1).
The target of test [5] is GvpF fused to NGFP or CGFP (split-GFP) (Halobacterium salinarum PHH1). This is another data set of the same source.
The target of test [6] is GvpH fused to NGFP or CGFP (split-GFP) (Halobacterium salinarum PHH1).
For test [7], the target named is GvpG fused to NGFP or CGFP (split-GFP) (Halobacterium salinarum PHH1). This is another data set of the same source.
The target of test [8] is GvpI fused to NGFP or CGFP (split-GFP) (Halobacterium salinarum PHH1). The source holds these as a separate data set.
Test [9] concerns the target GvpK fused to NGFP or CGFP (split-GFP) (Halobacterium salinarum PHH1).
For test [10], the target named is GvpL fused to NGFP or CGFP (split-GFP) (Halobacterium salinarum PHH1). The source holds these as a separate data set.
The target of test [11] is GvpJ fused to NGFP or CGFP (split-GFP) (Halobacterium salinarum PHH1).
Test [12] deals with GvpM fused to NGFP or CGFP (split-GFP) (Halobacterium salinarum PHH1).

Like-named read-outs stand apart in the source and are kept apart here. Bounds are passed on as bounds.

Sequence of GvpF fused to NGFP or CGFP (split-GFP) (Halobacterium salinarum PHH1) (P24370 whole entry, the tested form may be a part): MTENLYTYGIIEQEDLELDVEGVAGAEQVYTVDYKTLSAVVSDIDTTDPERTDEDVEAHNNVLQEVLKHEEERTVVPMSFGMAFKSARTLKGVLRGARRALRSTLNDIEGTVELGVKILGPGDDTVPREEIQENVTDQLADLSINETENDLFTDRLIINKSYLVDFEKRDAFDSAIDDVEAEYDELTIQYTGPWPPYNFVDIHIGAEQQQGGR
Sequence of GvpL fused to NGFP or CGFP (split-GFP) (Halobacterium salinarum PHH1) (Q9HI27 whole entry, the tested form may be a part): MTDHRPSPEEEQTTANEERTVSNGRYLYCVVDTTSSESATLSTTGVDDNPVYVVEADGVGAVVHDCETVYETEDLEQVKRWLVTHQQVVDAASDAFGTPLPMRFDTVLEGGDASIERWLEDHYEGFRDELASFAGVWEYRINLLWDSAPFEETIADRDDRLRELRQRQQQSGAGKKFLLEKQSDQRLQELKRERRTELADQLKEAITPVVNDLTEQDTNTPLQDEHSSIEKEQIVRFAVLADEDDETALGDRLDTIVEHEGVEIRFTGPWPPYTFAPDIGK
Sequence of GvpG fused to NGFP or CGFP (split-GFP) (Halobacterium salinarum PHH1) (P24371 whole entry, the tested form may be a part): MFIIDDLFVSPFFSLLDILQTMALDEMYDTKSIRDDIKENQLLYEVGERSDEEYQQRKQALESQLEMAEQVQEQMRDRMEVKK

With “GvpG fused to NGFP or CGFP (split-GFP) (natural protein)”, the relative fluorescence (rf) in test [1] was 3.5 rf. The highest relative fluorescence (rf) in test [2] was found to be 5 rf; in test [3], 77.5 rf.
“GvpK fused to NGFP or CGFP (split-GFP) (natural protein)”: the highest relative fluorescence (rf) in test [3] was 7.4 rf.
Consider “GvpH fused to NGFP or CGFP (split-GFP) (natural protein)”, for which the highest relative fluorescence (rf) in test [4] worked out at 20 rf; in [2], 6.3 rf; in [3] it was 11.4 rf.
Take “GvpI fused to NGFP or CGFP (split-GFP) (natural protein)”: the highest relative fluorescence (rf) in test [2] is 6.3 rf; in test [3], 13.7 rf.
Take “GvpF fused to NGFP or CGFP (split-GFP) (natural protein)”: the relative fluorescence (rf) in test [2] amounted to 1.5 rf. In addition, the highest relative fluorescence (rf) in test [3] was 16.6 rf.
Regarding VAASVDTFLHYAEEIAKIEQAELTAGAEAAPEA (domain or fragment) [GvpA fragment A44-76 fused to NGFP or CGFP (split-GFP)], the highest relative fluorescence (rf) in test [5] was under 1 rf.
Same read-out and setting: then MAQPDSSGLAEVLDRVLDKGVV (domain or fragment) [GvpA fragment A1-22 fused to NGFP or CGFP (split-GFP)], with 41 rf.

B1: GvpA fused to NGFP or CGFP (split-GFP) (natural protein)
chain: MAQPDSSGLAEVLDRVLDKGVVVDVWARVSLVGIEILTVEARVVAASVDTFLHYAEEIAKIEQAELTAGAEAAPEA
For B1, the highest relative fluorescence (rf) was under 1 rf in test [6]; under 1 rf in test [7]; under 1 rf in [8]; 20 rf in test [5]; under 1 rf in test [9]; under 1 rf in [10]. The highest relative fluorescence (rf) in test [11] and in test [12] was under 1 rf in each case. For the same molecule, in [5], the relative fluorescence (rf) lay within 15 to 18 rf.

B2: GvpA R28D (split-GFP fusion) (natural protein)
chain: MAQPDSSGLAEVLDRVLDKGVVVDVWADVSLVGIEILTVEARVVAASVDTFLHYAEEIAKIEQAELTAGAEAAPEA
Turning to B2, the relative fluorescence (rf) in [5] was under 6 rf.

B3: GvpA D24Y (split-GFP fusion) (natural protein)
chain: MAQPDSSGLAEVLDRVLDKGVVVYVWARVSLVGIEILTVEARVVAASVDTFLHYAEEIAKIEQAELTAGAEAAPEA
Regarding B3, the relative fluorescence (rf) in test [5] is under 6 rf.

B4: GvpA D24A (split-GFP fusion) (natural protein)
chain: MAQPDSSGLAEVLDRVLDKGVVVAVWARVSLVGIEILTVEARVVAASVDTFLHYAEEIAKIEQAELTAGAEAAPEA
As for B4, in test [5], the relative fluorescence (rf) is under 6 rf.

B5: GvpA E40A (split-GFP fusion) (natural protein)
chain: MAQPDSSGLAEVLDRVLDKGVVVDVWARVSLVGIEILTVAARVVAASVDTFLHYAEEIAKIEQAELTAGAEAAPEA
As for B5, the relative fluorescence (rf) in test [5] was under 6 rf.

B6: GvpA G20A (split-GFP fusion) (natural protein)
chain: MAQPDSSGLAEVLDRVLDKAVVVDVWARVSLVGIEILTVEARVVAASVDTFLHYAEEIAKIEQAELTAGAEAAPEA
B6: the relative fluorescence (rf) in test [5] was under 6 rf.

B7: GvpA R28A (split-GFP fusion) (natural protein)
chain: MAQPDSSGLAEVLDRVLDKGVVVDVWAAVSLVGIEILTVEARVVAASVDTFLHYAEEIAKIEQAELTAGAEAAPEA
As to B7, the relative fluorescence (rf) in test [5] was under 6 rf.

B8: GvpA G20D (split-GFP fusion) (natural protein)
chain: MAQPDSSGLAEVLDRVLDKDVVVDVWARVSLVGIEILTVEARVVAASVDTFLHYAEEIAKIEQAELTAGAEAAPEA
Consider B8, for which the relative fluorescence (rf) in test [5] was under 6 rf.
As for GVVVDVWARVSLVGIEILTVEARVVAAS (domain or fragment) [GvpA fragment A20-47 fused to NGFP or CGFP (split-GFP)], in test [5], the highest relative fluorescence (rf) was under 1 rf.
